# Results reported in PMC5745793 (2017).
# Read-outs that look alike come from different tables or passages of the source.
# B1: CCL8 (protein)
# chain: QPDSVSIPITCCFNVINRKIPIQRLESYTRITNIQCPKEAVIFKTKRGKEVCADPKERWVRDSMKHLDQIFQNLKP
# Tests used:
# CCR3 (Homo sapiens) [1] = biological target: CCR3 (Homo sapiens) (UniProt P51677); conditions: cited from earlier work
# CCR3 (Homo sapiens) [2] = biological target: CCR3 (Homo sapiens) (UniProt P51677); conditions: cited from earlier work; remark: listed apart in the source
# CCR3 = biological target: T1, CCR3 (Homo sapiens, UniProt P51677); experiment: QCM
# T1 chain: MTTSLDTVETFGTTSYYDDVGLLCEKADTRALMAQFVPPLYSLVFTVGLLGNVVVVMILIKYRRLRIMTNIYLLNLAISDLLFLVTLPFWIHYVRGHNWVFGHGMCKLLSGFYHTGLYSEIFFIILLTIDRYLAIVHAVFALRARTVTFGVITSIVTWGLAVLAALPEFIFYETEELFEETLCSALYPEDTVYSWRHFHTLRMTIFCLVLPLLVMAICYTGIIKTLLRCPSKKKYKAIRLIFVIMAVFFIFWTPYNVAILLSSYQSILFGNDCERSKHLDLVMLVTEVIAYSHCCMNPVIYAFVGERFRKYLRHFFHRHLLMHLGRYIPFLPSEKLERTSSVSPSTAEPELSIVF
molecule,measurement,setting,value
CCL11 (from UniProt P51671),Kd,CCR3 (Homo sapiens) [1],370 nM
CCL24 (from UniProt O00175),Kd,CCR3 (Homo sapiens) [2],300 nM
B1,Kd,CCR3,120 nM
